Measured values from ChEMBL document CHEMBL1141065, “Inhibition of mandelate racemase by the substrate-intermediate-product analogue 1,1-diphenyl-1-hydroxymethylphosphonate” (Bioorg Med Chem Lett, 2005).

Tests used:
Settings in all cases: Pseudomonas putida
[1] = substrate: O=C([O-])[C@H]([O-])c1ccccc1.[Mg+2]
Description: Michaelis-Menten constant of mandelate racemase was determined at pH 7.5

[2] = substrate: O=C([O-])[C@H]([O-])c1ccccc1.[Mg+2]; remark: listed apart in the source
Description: Michaelis-Menten constant of mandelate racemase was determined at pH 6.3

[3] = substrate: O=C([O-])[C@H]([O-])c1ccccc1.[Mg+2]; remark: listed apart in the source
Description: Michaelis-Menten constant of mandelate racemase was determined at pH 8.7

B1: Mandelate racemase (Pseudomonas putida), P11444 (protein)
chain: MSEVLITGLRTRAVNVPLAYPVHTAVGTVGTAPLVLIDLATSAGVVGHSYLFAYTPVALKSLKQLLDDMAAMIVNEPLAPVSLEAMLAKRFCLAGYTGLIRMAAAGIDMAAWDALGKVHETPLVKLLGANARPVQAYDSHSLDGVKLATERAVTAAELGFRAVKTKIGYPALDQDLAVVRSIRQAVGDDFGIMVDYNQSLDVPAAIKRSQALQQEGVTWIEEPTLQHDYEGHQRIQSKLNVPVQMGENWLGPEEMFKALSIGACRLAMPDAMKIGGVTGWIRASALAQQFGIPMSSHLFQEISAHLLAATPTAHWLERLDLAGSVIEPTLTFEGGNAVIPDLPGVGIIWREKEIGKYLV
[1]
  Km: 440 µM
[2]
  Km: 950 µM
[3]
  Km: 2020 µM
